The data set in a line: yeast display, Sf9 membrane polyspecificity reagent, FACS + sequencing; frameworks hold sequencing errors. In short, it runs like this:
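Genes from sorted yeast were amplified by colony PCR, read by MiSeq 2 × 250 sequencing and filtered on CDR length. These cells carried a synthetic nanobody library in Saccharomyces cerevisiae BJ5465 and were sorted by FACS into low and high (top ~1%) gates on anti-HA and streptavidin fluorescence. Polyreactivity is labelled according to the gate of origin.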
In the case of “PVQLVESGGGLVQAGGSLRLSCAASGSIFGVNDMGWYIQGAGKERELVAGINQGGGSTYYADSVKGRFTISRDIAKNTVYLQMNSLKPEDTAVYYCAAVRYVLRSPARYGYWGQGTQVTVSS”, the “polyreactivity (PSR sort gate)” value is “low polyreactivity”.
For “PVQLVESGGGLVQAGGSLRLSCAASGSTFYIYAMGWYRQAPGKERELVAAITSRGTITSYADSVKGRFTISRDNAKNTVYLQMNSLKPEDTAVYYCAADYWQDGIAYWYDYWGQGTQVTVSS” the value was “low polyreactivity”; for “PVQLVESGGGLVQAGGSLRLSCAASGYTFSYNAMGWYRQAPGKERELVAAIYRGGRTYYADSVKGRFTISRDNAKNTVYLQMNSLKPEDTAVYYCAAKRWTTKNGFYEYPYYYWGQGTQVTVSS”, “high polyreactivity”; for “PVQLVESGGGLVQAGGSLRLSCDAYGSIFAYNAMGWYRQAPGKERELVAAISVSDGITYYADSVKGRFTISRDNAKNTVYLQMISLKPEDTAVYYCPARTRGPSRAYDYWGQGTQGTVSS”, “low polyreactivity”.
On to “PVQLVESRGGLVQAGGSLRLSCAASGIIFQRYAMGWYRQAPGKERELVAAINFSGGSTYYADSVKGRFTISRDNAKNTVYLQMNSLKPEDTSVYYCARAGRYAAYSPFYYWGQGTQVTVSS”, for which the “polyreactivity (PSR sort gate)” value is “high polyreactivity”.
Take “QAQLQESGGSLLQAGGGLRLSCAASGYISVGSVMGWYRQAPSKERELVASIDQGANTNYADSVKGRYTISRDNAKNNVYLQMNSLKPEDSAVYYCATETTYILNYWGQGTQVTVSS”: the “polyreactivity (PSR sort gate)” value is given as “low polyreactivity”.
On to “QAQLQESGGSLVQAGGGLRLSCAAIGYISVGSVMGWYRQAPSKERELVASIDQGANTNYADSVKGRFTISRDNAKNNVYLQMNSLKPEDTAVYYCATETTYILNYWGQGTQVTVSS”, for which the “polyreactivity (PSR sort gate)” value was “low polyreactivity”.
In the case of “QAQLVDSGGGLVQEGGSLRLSCAASGLIFDANVMGSYRQAPGKERELVAAISWSGGRTYYADSVKGRFTISRDNAKNTVFFQMNSMNPEVTAVYYCAADTWPDMHDYWGQGTQVTVSS”, the “polyreactivity (PSR sort gate)” value was “low polyreactivity”.
As for “QAQRVESGGGLGQAGGSLRLSCAASGRTFVRYTMGWYRQAPGKERELVAAISRSGGSTYYADSVKRRYTISRANAKNTVYLQLNSLKPEDTAVYYCAARRNAYHRDYYWGQGTQVTVSS”, the “polyreactivity (PSR sort gate)” value is reported as “high polyreactivity”.
Turning to “QDHLVESGGGLVQAGGSLRLICAANGRTFRRYAMGWYRQAPGKERELVATITSGGSTNYADSVKGRFTISRDNAKNTVYLQMNSLKPQDTAVYYCAARHGESHYDYWGQGTQVTVSS”, the “polyreactivity (PSR sort gate)” value is “low polyreactivity”.
For the sequence “QDHLVESGGGLVQAGGSLRLSCAASGRIFGGYVMGRYRQAPGTERELVAAINGGGGSTYYADSVKGRFTISRDNAKNTVYLQMNSLKPEDTAVYYCMLVKRSQRKSTIDFDYWGQGTQVTVSS”, the “polyreactivity (PSR sort gate)” value is reported as “high polyreactivity”.
On to “QDHLVESGGGLVQAGGSLSLSCAASGIIFYGNAMGLSRQAHGKDRELVAAISWSGSSTYYADSVKGRFTISRDNAKNTVYLQMNSLKPEDNAVYYCNKATSSVRYLKYYYWGQGTQVTVSS”, for which the “polyreactivity (PSR sort gate)” value was “high polyreactivity”.
For the sequence “QDHLVETGGGLVQAGGSLRLSCAASGRTLYINAMGWYRQAPGKERELVAAIRRGGSTYADSVKGRFTISRDNAKNTVYLQMNRLKPEDTAVYYCAADVPSGKYKGDYWGQGTQVTVSS”, the “polyreactivity (PSR sort gate)” value is recorded as “high polyreactivity”.
As for “QDKLVDSGGGLVQAGGSLRLSCAASGFIFGKYTMVWYRQAPGKERELVAAINRRGGSTYYADSVKGRFTISRDNAKNTVYLQMNSLKPEDTAVYYCAKDGYSLDRYYWGQGTQVTVSS”, the “polyreactivity (PSR sort gate)” value is recorded as “high polyreactivity”.
Under “QDKLVESGGGLVKAGGSLRLSCAASGSIFATYAMVWYRQAPGKERELVAAISKSTDSTYYADSVKGRFTISRDNAKNNVYLQMNSQKPEDTAVYYCAAVQRYKGLQDDSWGQGTQVTVSS” stands “high polyreactivity”; under “QDPLVESGGGVVQAGGSLRLSCAASGSTFSDYAMGWYRQAPGKERELVAAISVSDGSTYYADSVKGRFTISRDIAKNSVYLQMNSLKPEETAVYYCAAEYPYFVYSYFRFDYWGQGTQVTVSS”, “low polyreactivity”; under “QDQHVDSGGGLVQAGGSLRLSCAASGFIFPQNAMGWYRQAPGKERELVAAISKRGGSTYYADSVKGRFTISRDNAKNTVYLQMNSLNPEDTAVYYCAVRYYFYRPGGYDYWGQGTQLTVSS”, “high polyreactivity”.
For the sequence “QDQHVESGGCLVQAGGSLRLSCAASGFTFYANAMGWYRQAPGKERELVAAISRGVSTTYADSVKGRFTISRDNSKNTVYLQMNSLTPEDTAVYYCAADGKVIAQGYDYWGQGTQVTVST”, the “polyreactivity (PSR sort gate)” value was “low polyreactivity”.
Take “QDQHVESGGGFVQAGGSLRLICAASGYTFYGNPMGWYRQAPGKEREFVASINYNDDSTYYADSVKGRFTISLDNAKNTDYLQMNSLKPEDTAVYYCAAEYRTRGYHWIYYWGQGTQVTVSS”: the “polyreactivity (PSR sort gate)” value is on record as “low polyreactivity”.
“QDQHVESGGGLVQAGCSLRLSCAASGFIFTYYAMGWYRQAPGKERELVAAISRSGGNTYYADSVKGRFTISRDNAKNTVYFQMYSLKREDTAVYFCAAETRRGGYWGYEYYYWGQGTQVTVSS”: the “polyreactivity (PSR sort gate)” value was “high polyreactivity”.
Turning to “QDQHVESGGGLVQAGCSLRLSCAASGSIFKDNAMGWYRPAPCKEWELVADITIGDSTTYEDSVKGRFTISRDNAKNTVYLHMNSLKPEDTAVYYCAADNYIIKYDYWDYDYCGQGTQVTVSS”, the “polyreactivity (PSR sort gate)” value is “low polyreactivity”.
For “QDQHVESGGGLVQAGGILRLICAASGPIFGYNAMGWYRQEPGQERELVAAINSDGSKNYADSVKGRFTISRDNAKITVYLQMISLKPEDTAVYYCNQLLYPVGDYEFWGQGTQVTVSS”, the “polyreactivity (PSR sort gate)” value is reported as “low polyreactivity”.
On to “QDQHVESGGGLVQAGGRLRLSCAASGRIFSFYVMGWYIQAPGKERELVASISLSGGSTYYADSVKGRFTFSRDNAKNTVYLQMNSLKPEDTEVYYCNAVLYARQRERWARYDYWGQGTQVTVSS”, for which the “polyreactivity (PSR sort gate)” value is listed as “high polyreactivity”.
Turning to “QDQHVESGGGLVQAGGSLRLICAASGFIFVTNTMGWYRQAPGTEWELVAAIRWSGGTTYYADSVKGRFTISRDNAMQTVYLQMNSLKPEDTAFYYCAARYGSRSSYLAYYYWGQGTQVTVSS”, the “polyreactivity (PSR sort gate)” value was “high polyreactivity”.
As for “QDQHVESGGGLVQAGGSLRLSCAASGIILSAYAMGWYRQAPGTERELVARISRSGGRTYYADSVKGRFTISRDNAKNTVYLQMNSLKPEDTAVYYCAADYSYGFGLYFGYGYWGQGTQVTVSS”, the “polyreactivity (PSR sort gate)” value is on record as “high polyreactivity”.
For the sequence “QDQHVESGGGLVQAGGSLRLSCAASGLTFTLYAMGWYRKAPGKERELVAAITRSGGSTSYADSVKGRFTISRDYAKNTVYLQMNSLKPEDTAVYYCNADSPGYTAVRLVEFDYWGQGTQVTVSS”, the “polyreactivity (PSR sort gate)” value was “low polyreactivity”.
In the case of “QDQHVESGGGLVQAGGSLRLSCAASGLTSLGNAMGWYRQAPGKERELVAAITRTGTSTYYADSVKGRFTISRDNAKNTVYLQMNSLKPEDTAVYYCAADWWYGYSNYDYWGQGTQVTVSS”, the “polyreactivity (PSR sort gate)” value is reported as “low polyreactivity”.
As to “QDQHVESGGGLVQAGGSLRLSCAASGRTIGYNAMGLYRQAPGKERELVAAITSSSGSTYYADSVKGRFTISRDNAKNTVYLQMNSLKPEDRAVYYCAAYFRRLLYDYWGQGTHVTVSS”, the “polyreactivity (PSR sort gate)” value was “high polyreactivity”.
With “QDQHVESGGGLVQAGGSLRLSCAASGSTFDAYAMGWYRQAPGKERELVAAISWSDTTTYYADSVKGRFTISRDNAKNTVYLQMNSLKPEDTAVYYCADEYYFTEGSYTSDYWGQGTQVTVSS”, the “polyreactivity (PSR sort gate)” value was “high polyreactivity”.
As to “QDQHVESGGGLVQAGGSLRLSCAASGSTFDWNAMGWSRQAPGKERELVAGISWNGGSTYYADSVKGRFTISRDNAKNTVYLQMNSLKPEDTAVYYCNVVYGTTEYDYWGQGTQVTVSS”, the “polyreactivity (PSR sort gate)” value was “low polyreactivity”.
In the case of “QDQHVESGGGLVQAGGSLRLSCDASGITFWYYAMGWYRQAPGKERELVAAISRRGGATYYADSVKGRFTISRDNAKNTVYLQLNSLKPEDTAVYYCNALLAGRRVARGYDSWGQGTQVTVSS”, the “polyreactivity (PSR sort gate)” value is given as “high polyreactivity”.
Under “QDQHVESGGGLVQAGGTLRISCAASGFTFYVYAMGWYRQAPGKEMELVASISKSGGSTYYADSVKGRFTITRDNAKNTVFLQMNSLKTVDTAVYYCAVYDKRSCYRGGHRYNSCGQGTQVTVSS” stands “high polyreactivity”; under “QDQHVESVGGLVQAGGSLRLSCAASGSIIPLYAMGWYRQAPGKERELVAAISSRGGSTYYADSVKGRFSISRDNAKNTVYLQMKSLKPEDTAVYYCAVDTPSPSRGPRFNYWGQGTQVTVSS”, “high polyreactivity”; under “QDQIVESGGGLVQAGGSLRLSCAASGSIFVIKAMGWYRQAPGKERELVASIRGRTGSTNYADSVKGRFTISRDNAKNTVYLQMNSLKPVDTAVYYGAADRKGPFDYWGLGTQVTVSS”, “high polyreactivity”.
Consider “QDQIVESGGGLVQAGGSLRLSCAASGSIIWGNALGWYSQAPGKERELVAAISWGGGRTYYADSVKGRFTLSRDNAKNTVYLQMNSLKPEDTAVYYCNTRYPYVVSTGYDYWGQGTQVTVSS”, for which the “polyreactivity (PSR sort gate)” value is given as “high polyreactivity”.
For “QDQLEESGGGLDQAGCSLRLSCAASGFTFNYYTMGWYRQAPVKERELVAVITGGGGSTYYADSVKGRFTISRDNAKNTVYLQMNSLKPEDTAVYYCAAYWGGWSFRYLYDYWGQGTQVTGSS”, the “polyreactivity (PSR sort gate)” value is reported as “high polyreactivity”.
With “QDQLEESGGGLVQAGGSLRLSCAASGFTFHINSMGWDREAPGKEREMVAAITYSGGSTYYADSVKGRFTISRDPAKNTVYLQMNCLKPEHTAVDYCATTWYFVASWFVAIYVYWGQGTQVTVSS”, the “polyreactivity (PSR sort gate)” value is “low polyreactivity”.
Take “QDQLEESGGGLVQAGGSLRLSCAASGLTFIQYALGWYRQAPGKERELVAAINSGASTRYADSEKGRFTISRDNAMNTVYLQMNSLKPEDTAVYYCNARLRRYTNRYYKYYYWGQGTLVTVSS”: the “polyreactivity (PSR sort gate)” value is listed as “high polyreactivity”.
Under “QDQLEESGGGLVQAGGSLRLSCAASGSTFSYYTMGWYRQGPGKETELVAAISSGGSTYADSVKGRFTISRDNAKYTVYLQKNSLKPEDTAVYYCAVVGFDYGPSQALDDWGQGTQVTVSS” stands “low polyreactivity”; under “QDQLEESGGGLVQAGGSLRLSSADSGRIFYSYAMGWYRQAPGKERELVAAINSGDRTNYADSVKGRFTISRDNAKNTVYLQMNSLKPEDTAVYYCATRWFAFPWDEYNYWGQGTQGTVSS”, “low polyreactivity”; under “QDQLEESVGGLVQAGGSLRLSCAASGRIFVYNAMGWYRQAPGKERELVAAISKGGGSTYYADSVKGRFTISRDNAKNTVYLQMNSLKPEDTAVYYCAAVVSGRYWGYYSWGQGTQVTVSS”, “high polyreactivity”.
